Measurements reported in the DeepSol protein solubility set.

experiment: soluble on expression in E. coli; label from the status in PepcDB or PDB records

Row | Sequence | soluble on expression in E. coli
1 | MLALGKLLELTLAGREPAEKTQLTVEGVRMRWLAEGALEVRPPQARDNGTDLLLSAGIHGNETAPIELLDELIRSIARGDLKPRARILFLFGNPAAMRLGARYVEQDVNRLFNGRHEQSGGAEALRACELERLAASFFSLPDRYRLHYDLHTAIRGSKIEQFALYPWKEGRQHSRFELARLRAAGISAVLLQNKPSIVFSAYTYEQLGAEAFTLELGKARPFGQNRHVNLAPLRLRLEQIIEGSEPQPDERLEGLQLFSVAREVIKRSDAFTFNLADDVENFSELEKGYVLAEDVSDSRWVVKEEGARIIFPNPKVKNGLRAGIVIVPADADGLGLEHHHHHH | not soluble
2 | MGSDKIHHHHHHMKNRFLIICTVLFLSSCLAYGQEQASVTNDFSENKQGCIQHPWQGKKVGYIGDSITDPNCYGDNIKKYWDFLKEWLGITPFVYGISGRQWDDVPRQAEKLKKEHGGEVDAILVFMGTNDYNSSVPIGEWFTEQEEQVLSAHGEMKKMVTRKKRTPVMTQDTYRGRINIGITQLKKLFPDKQIVLLTPLHRSLANFGDKNVQPDESYQNGCGEYIDAYVQAIKEAGNIWGIPVIDFNAVTGMNPMVEEQLIYFYDAGYDRLHPDTKGQERMARTLMYQLLALPVAF | not soluble
3 | MHHHHHHSSGRENLYFQGVWKSYLYQLQQEAPHPRRITCTCEVENRPKYYGREFHGMISREAADQLLIVAEGSYLIRESQRQPGTYTLALRFGSQTRNFRLYYDGKHFVGEKRFESIHDLVTDGLITLYIETKAAEYIAKMTINPIYEHVGYTTLNREPAYKKHMPVLKETHDERDSTGQDGVSEKRLTSLVRRATLKENEQIPKYEKIHNFKVHTFRGPHWCEYCANFMWGLIAQGVKCADCGLNVHKQCSKMVPNDCKPDLKHVKKVYSCDLTTLVKAHTTKRPMVVDMCIREIESRGLNSEGLYRVSGFSDLIEDVKMAFDRDGEKADISVNMYEDINIITGALKLYFRDLPIPLITYDAYPKFIESAKIMDPDEQLETLHEALKLLPPAHCETLRYLMAHLKRVTLHEKENLMNAENLGIVFGPTLMRSPELDAMAALNDIRYQRLVVELLIKNEDILF | soluble
4 | MASVVGTPKSAEQIQQEWDTNPRWKDVTRTYSAEDVVALQGSVVEEHTLARRGAEVLWEQLHDLEWVNALGALTGNMAVQQVRAGLKAIYLSGWQVAGDANLSGHTYPDQSLYPANSVPQVVRRINNALQRADQIAKIEGDTSVENWLAPIVADGEAGFGGALNVYELQKALIAAGVAGSHWEDQLASEKKSGHLGGKVLIPTQQHIRTLTSARLAADVADVPTVVIARTDAEAATLITSDVDERDQPFITGERTREGFYRTKNGIEPCIARAKAYAPFADLIWMETGTPDLEAARQFSEAVKAEYPDQMLAYNCSPSFNWKKHLDDATIAKFQKELAAMGFKFQFITLAGFHALNYSMFDLAYGYAQNQMSAYVELQEREFAAEERGYTATKHQREVGAGYFDRIATTVDPNSSTTALTGSTEEGQFH | soluble
5 | MERDGCFGNCWLRRWEKSDMNRKGFGGHRDAKQLSRTKNRFARLDPDTQSRYEDDDEPAVPVRASLTSASSRGRGGSSRGFGQSAASIANTGVRNADIVYKCRATGAAKKVDAKWLIKQLNQIIENFKPLLWTDNARGDFEWYVRDEDTASTIRANNRRVVHKESGTRVEFYTSKVPAPWMKLKREEIEIIHRVVDKRHNAENRVLDLSNFHEDEEFKAKDMMMNLTKGNVMLTVLDHIDDKYGNIVALSLSNNRIRHLDYASALVSIAKFVMELDLSHNHISTEKELEKFAGLPVERFFFEGNPVVESFTQRAAYISYIHQSFPRCNMLDGVEVQPLVVGPDLDIHDAMPFRAGYYPNPQIRVLVEQFVTSYFDFYDGPDGQRTRRNLHNAYDADASTFSLTIEHLRGSSHARHHNDECFAQYAGVSHNVLKQERFARHRASRSARGAMDIAVALSKLPTSSHMRDTFIVDVFLQSNDLLGFTVQGLFCDGDLTQTPSPSFFSRSFLVSPRENDSVAVISDQLFITVASLDRLEKFKKLYDQSIANGAAVEQVSAVQIAQIGVNGMGFDGAPALPIREEMIKAMCQFSGMIPPFSEKCLADCAWNFDFACQKFNEIKSSVPAEAFAH | not soluble
6 | MAGTISDYGGRQQIWNLGNNIIDTKKLVDLELQALEMKKSPYTTQKQTLTNEKNVYASMKKEFGNLVQVFKDLYAFKGDEKKTTLSKDGFMKAQADAAAIPGTYTITVERVAERHQITTAPLTPSKTPESMEQKFSLDLKLGVDDVFQINGKEVKISKDMTYKDLVNKINNGNYGASVYTLGDQLFFTSTTAGEAGELKLTDGANGFLQNIGLVTSAKNPDGTNVVAHQVTGAINAEYTINGIKGTSKTNKIDTIPGLTINLEKETTEPIKLTIEDSDIKNSIDLIKKMKDEYNKAVKSLDLFAGENGVMQGSNVSFAINNAMTGIFKFSQDDKYLFSFGIQIDKKGNMTLDEEKLKTAFKENPESTKQFFFGLNGLGHDTEKKLDGIFGDEGIIGKRSKSIEKQVTDLERKIQDIDTVNKEKQKTIIDKYAKLESQLALLDSQLKTIQAMTKTKSDD | not soluble
7 | MSLKSAKDVQTITKITIDFGGEEIFLDFDEVTKHYLNQPLSAKTVFALTKELTQVLYNAGYVTSAIGLKSSKIKNGEVEFVVLWGKVNDILVEEQQASLFKDKAMLFVLPNLKGKVLRIYDVDQLIEILNTGNKTAKVNVIAANEKSMSNLSIERHRTSYPQVSLSLNNSGEGSNAEGRNQATLSISWSDLLGTNDRWSFSTGYRIYKDRQANRQQNYSLSYTQPFSFSTLDIKLSYSGYKKQLRGIHTHGSSGETKQASFKLSHTLLRNKDMILSLYGELEFKRRLSYFGDIRIGKYHNNKLNIGLSYVTNLGHGKLYSDLSYSNGLRWFNANHSAYNSHRDKTLRLVSGSINWQRPFVFFNRGMSYQFRLGAQYGFDSLYGENQFSIGDEYTVRGFKGGAGSGDRGFYISQTVTIPFYPQKSYLSYINPFLGIDIGKVHAKRPHHVVDTFAGFAFGVKAQIKSLALSLTYAKPINGVGTFEESNKKSVFYFTGSVSFEGHHHHHH | not soluble
8 | DLAKEGKLHSIVDSLFYSRLYKKEKRVYGDTDYDRFDFFTNRFLQSFNKAAFDDFFSSRVEYPNQIKILFQMFFTKMEKLKTD | not soluble
9 | MTVTTKLIDYSDEEGNNFEGVLYIPKNVKQSKVPAVLIFPAFRGITHFEKDKGQQIAELGFVAFVADVYGKGVRPTERADAFATMGPLVSNRVEKLKPRLFAAVNTLKTFSEVDTSKIAAIGYCFGGLCVLDLARYNAGLKGVVSYHGTLKPIPDIALDPIVGTTVYVHHGDADFHIAKDQVDGFHEEMRTRQADFVFVSHANAVHAFTEPEADSFNAPGIGYNEKAAKRSWNATLDLFKEIF | not soluble
10 | MSLSLRVRQIDRREWLLAQTATECQRHGREATLEYPTRQGMWVRLSDAEKRWSAWIKPGDWLEHVSPALAGAAVSAGAEHLVVPWLAATERPFELPVPHLSCRRLCVENPVPGSALPEGKLLHIMSDRGGLWFEHLPELPAVGGGRPKMLRWPLRFVIGSSDTQRSLLGRIGIGDVLLIRTSRAEVYCYAKKLGHFNRVEGGIIVETLDIQHIEEENNTTETAETLPGLNQLPVKLEFVLYRKNVTLAELEAMGQQQLLSLPTNAELNVEIMANGVLLGNGELVQMNDTLGVEIHEWLSESGNGEEGHHHHHH | soluble
11 | MGSDKIHHHHHHMEMRFFVLGAGSWGTVFAQMLHENGEEVILWARRKEIVDLINVSHTSPYVEESKITVRATNDLEEIKKEDILVIAIPVQYIREHLLRLPVKPSMVLNLSKGIEIKTGKRVSEIVEEILGCPYAVLSGPSHAEEVAKKLPTAVTLAGENSKELQKRISTEYFRVYTCEDVVGVEIAGALKNVIAIAAGILDGFGGWDNAKAALETRGIYEIARFGMFFGADQKTFMGLAGIGDLMVTCNSRYSRNRRFGELIARGFNPLKLLESSNQVVEGAFTVKAVMKIAKENKIDMPISEEVYRVVYEGKPPLQSMRDLMRRSLKDEFWAS | soluble
12 | MSLEYENEIMDLINDYDMLRVLKHFTVAHVDYAKNITRYTEIPQIRVRAYLERLKEMGLLDYYTNTSIKRTEAKLKKSAEVHKHHTYYQINKKAEAVLKEITPKLYVKVLGKEKLELLCSRKVRKTSPDRCTGLQAMGLIDKCFDLTELGREVFEAALRMQAIRCQDEGHHHHHH | soluble
13 | MVDNLIKYIHKSDVAIVVLHEIYGINSFIEDVCQKYYKYGYDVFCPELLGEKRVFPYSKVQEAYDFFINNVGFDIYKKVEKLINDLKSEYKYVFVAGYSVGATIAWRCSEDSFCDGIICCYGSRIRDYMDVIPKCPTLLVFAKHDSFDVDSISCQLSRKQNIQIEILDANHGFIDRYSNNYSDIQTKVFTIKEKSFLSKCLA | not soluble
14 | VAEKPYLKDPEVAAGYHRVAKRELPEPKIMEVPQRFAAYVRHEGYNRSIRNAWLILKAWASSENRDFSVQYGLHHSNPAWVELDKCRYVACMAIDKPLKVRGVVNQMTIPGGLHAVFRLTGVYGELLPQLSMVLEKWLPNSGFKQRSTPAYVHYHKNHFLSHDEAFELDFYLPISFF | not soluble
15 | MSLSITSDLIATANSGIWTDSEMLECCAVVPEAPDTVTISFVSPSGNLFKYEPGQFLTLELPVPGGPLYRTYTISSSPSRPLSLSITVKAQPGSIGTRWMLEKLMPGMRVKAIGPAGQFTLDTTARKKKYLFISAGSGVTPTLAMTTYLYDRGTDIDVSIINCARRPGEIIGRRSLAAMASRVPSIKLTFIVEEDDPFQVWTGLRGRLNQIMIGIVAGDYLERDIYCCGPEPFMDAVREMLIGLGYDMSRYSQESFSAPAETAEDVPDLDDVTPDESVAAQITFVSSKVTAGCTETDTVLAVARGAGLNIPSGCTFGVCGTCKIRKTKGEVHMVHNGGISEDDIADGYILACCSKPVGQVEVDIEGHHHHHH | soluble
16 | MFDYSAHPELLKGRVILVTGAARGIGAAAARAYAAHGASVVLLGRTEASLAEVSDQIKSAGQPQPLIIALNLENATAQQYRELAARVEHEFGRLDGLLHNASIIGPRTPLEQLPDEDFMQVMHVNVNATFMLTRALLPLLKRSEDASIAFTSSSVGRKGRANWGAYGVSKFATEGLMQTLADELEGVTAVRANSINPGATRTGMRAQAYPDENPLNNPAPEDIMPVYLYLMGPDSTGINGQALNAQ | soluble
17 | MRWTKEELDRYHRQMILPQVGPEGQERLKRASVVVVGAGGLGVPVLQYLVAARVGRVGVVEMDRVEVSDLHRQVLYTTEDVGEPKALVAQKRLQALNPLVRVEAYPVRLTSENALEILRPYDLVVDASDNFPTRYLVNDAAVLLGKPLVFGAIYQFDGQGTVFHHPTLHGEMGPCYRCLFPKPPPPGAVPSCAEAGVFGVLPAVVGSLMAAEALKVLLGIGKPLAGHLLLYDALEAGFRKLTVRRNPRCPVCGDEPTQRELVDYEAFCGLG | soluble
18 | MLWRKRLFAHLYPGLSARHEALVAERKRALFREALRRARPERVLEIGPGPGTNLAHLPEGVAYLALEPNPFFHPRLREEARKRGLALTLLPGRAEAIPLPGGSVDLVVATLVLCSVADPEKAIEEVHRVLRPGGAYLFLEHVAAPKRTPLRFLQEVATPFFAFFGDGCHPNRETLALIQARFPRVEAEAFPLPLPVVAPHVAGLAFKEGGSGGSLQGPWA | soluble
